Laboratory results reported in paper PMC6170708.

Legend:
[1] = molecular target: recombinant HBeAg dimer (construct Cp(−10) 149 C48A.C107A) (Hepatitis B virus (strain not stated)) (UniProt P03147); test: AUC
[2] = molecular target: recombinant HBcAg assembly domain dimer (construct Cp1–149.C48A.C107A) (Hepatitis B virus (strain not stated)) (UniProt P03147); test: AUC

Row | Substance | percent of dimers converted to capsids (the pair that is blocked) [1] [%] | stoichiometry N [2]
1 | recombinant HBeAg dimer (construct Cp(−10) 149 C48A.C107A) (from UniProt P03147 1-149) (domain or fragment) | 40 | 
2 | recombinant HBcAg assembly domain dimer (construct Cp1–149.C48A.C107A) (from UniProt P03147 1-149) (domain or fragment) |  | 2
